Earlier results as cited in paper PMC11283454 (Nature Communications, 2024).

B1: scATE1: Saccharomyces cerevisiae ATE1 (protein, UniProt P16639 1-503, looked up)
Arginyl-tRNA--protein …: MSDRFVIWAPSMHNEPAAKCGYCHGNKGGNMDQLFALDSWAHRYMNKMDVVKIENCTIGSFVEHMDVATYDRMCNMGFRRSGKFLYKVDPLRNCCRLYTIRTAPQELNMTKELKKCISRFATRITSEDYCPAAVASSDFVGKIVNAEMNSKTFYTRFEPALYSEEKYHLFVKYQEKVHQDYNNSPKSFKRFLCDTPFGPEAVLGTQESWEQLNNWQRMKPGEKLKHMGPVHECYYYEGKLIAITVSDILPSGISSVYFIWDPDYSKWSLGKLSALRDLAIIQRTNLQYYYLGYYIEDCPKMNYKANYGAEVLDVCHSKYIPLKPIQDMISRGKLFVIGEEETKVTKELYLVDSETGRGEGFPTDNVVKYKNIAEEIYGVGGCAFKSANESALELKELYGIPYEEEDLDTIYHLKEHNGHAPNGIPNVVPGLLPLWELLDIMQSGKITDLEGRLFLFEIETEGIRPLINFYSEPPNVKKRICDVIRLFGFETCMKAVILYSEQM
Tm of scATE1: ~ 46 °C
